Assay results taken from article PMC2838905.

Biological target: Dictyostelium myosin II (bipolar filaments) (Dictyostelium discoideum) (UniProt P08799)

phosphorylation of MHC in a kinase assay (50 nM kinase, 1.0 μM myosin II), against the full-length kinase (% of the full-length kinase): 30
B1: GST-B-Δ-WD, MHCK-B truncation lacking only the WD-repeat domain (amino acids 1-450) (domain or fragment)
chain: MIFKVWFSYEDEEVELSELTNDTTVSAIRKILHEGKIFRFPYGTSQTDLQIGKMLPSGSGGGATADSKFEKFKARNTLADIQYKVGDTLYVRVKKSKPTNDSLLPTLNIAFLDGSERAIKWEYDPYTTTAQWTCTATLVKVEPVPFAEGAFRKAYHTLDLSKSGASGRYVSKIGKKPTPRPSYFEDVKMQMIAKKWADKYNSFKPPKKIEFLQSCVLEFVDRTSSDLICGAEPYVEGQYRKYNNNSGFVSNDERNTPQSFSHFTYEHSNHQLLIIDIQGVGDHYTDPQIHTYDGVGFGIGNLGQKGFEKFLDTHKCNAICQYLNLQSINPKSEKSDCGTVPRPDLIFPDTSERDNNNNNNNNNNNNNNNNNNNSNNNNNNNSSISKSLVEISSGSKERNDRDSPSRQLFVSNDGNTLNTNKERSKSKSIDLEKPEILINNKKKESINLET
